Reference: patent US20230287598A1
Several values for one entry are separate records, joined by “and”; a condition that tells them apart may be missing. Equal values may be shown once. Read-outs that look alike come from different tables or passages of the source.

Assays:
[1] = target: CXCR1 (UniProt P25024); assay: cell-based or functional assay
[2] = target: CXCR1 (UniProt P25024); assay: cell-based or functional assay; remark: listed apart in the source
[3] = target: CXCR1 (UniProt P25024); assay: flow cytometry on CXCR1-U2OS cells, supernatant IgG (parental U2OS: 76)
[4] = target: Kv1.3 (human) (UniProt P22001); assay: cell-based or functional assay
Kv1.3 (human), sequence (P22001 whole entry): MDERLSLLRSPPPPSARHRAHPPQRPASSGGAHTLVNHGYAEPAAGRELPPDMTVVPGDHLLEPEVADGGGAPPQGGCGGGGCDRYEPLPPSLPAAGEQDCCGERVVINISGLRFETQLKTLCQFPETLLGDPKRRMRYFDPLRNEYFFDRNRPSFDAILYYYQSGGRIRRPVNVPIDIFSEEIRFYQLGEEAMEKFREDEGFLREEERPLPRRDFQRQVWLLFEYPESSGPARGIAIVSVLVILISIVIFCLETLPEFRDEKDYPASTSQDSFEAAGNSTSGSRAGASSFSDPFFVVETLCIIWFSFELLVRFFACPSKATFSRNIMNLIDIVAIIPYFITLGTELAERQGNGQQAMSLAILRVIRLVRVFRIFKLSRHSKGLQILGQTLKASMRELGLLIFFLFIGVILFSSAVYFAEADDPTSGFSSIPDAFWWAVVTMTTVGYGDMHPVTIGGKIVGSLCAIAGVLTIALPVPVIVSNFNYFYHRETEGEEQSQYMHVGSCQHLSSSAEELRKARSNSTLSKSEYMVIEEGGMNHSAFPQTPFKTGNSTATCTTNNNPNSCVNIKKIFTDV

[5] = target: CXCR1 (UniProt P25024); assay: flow cytometry, CXCR1-U2OS / parental U2OS; HC BLV1H12+CDR3-IL8

soluble IL-8, sequence (P10145 28-99 limits assumed): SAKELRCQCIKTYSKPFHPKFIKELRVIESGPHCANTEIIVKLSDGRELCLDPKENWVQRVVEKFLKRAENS
IL-8, sequence (P10145 28-99 limits assumed): as above
CXCR1, sequence (P25024 whole entry): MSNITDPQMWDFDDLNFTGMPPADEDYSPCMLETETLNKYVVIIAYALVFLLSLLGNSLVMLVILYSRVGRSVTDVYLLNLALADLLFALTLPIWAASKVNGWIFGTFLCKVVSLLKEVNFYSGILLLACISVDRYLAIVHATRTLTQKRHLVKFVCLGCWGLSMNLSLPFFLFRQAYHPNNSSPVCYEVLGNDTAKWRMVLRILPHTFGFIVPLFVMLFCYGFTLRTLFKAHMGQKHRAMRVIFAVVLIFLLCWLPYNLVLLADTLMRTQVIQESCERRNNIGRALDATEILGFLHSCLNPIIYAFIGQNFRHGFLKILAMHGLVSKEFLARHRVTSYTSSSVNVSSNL

Substance: IL-8 (from UniProt P10145 28-99) (ligand)
- CXCR1 activation, average RLU at 0.01 nM [1]: 440 RLU
- CXCR1 activation, average RLU at 0.08 nM [1]: 504 RLU
- CXCR1 activation, average RLU at 0.23 nM [1]: 940 RLU
- CXCR1 activation, average RLU at 0.69 nM [1]: 1940 RLU
- CXCR1 activation, average RLU at 2.06 nM [1]: 4110 RLU
- CXCR1 activation, average RLU at 6.17 nM [1]: 5870 RLU
- CXCR1 activation, average RLU at 18.52 nM [1]: 7300 RLU
- CXCR1 activation, average RLU at 31.5 nM [1]: 55500 RLU
- CXCR1 activation, average RLU at 55.56 nM [1]: 7360 RLU
- CXCR1 activation, average RLU at 166.67 nM [1]: 6770 RLU
- CXCR1 activation, average RLU at 500.00 nM [1]: 5720 RLU
- CXCR1 activation, luminescence at 0.4 nM IL-8 domains [1]: 4930
- CXCR1 activation, luminescence at 1.6 nM IL-8 domains [1]: 8730
- CXCR1 activation, luminescence at 6.25 nM IL-8 domains [1]: 22300
- CXCR1 activation, luminescence at 25 nM IL-8 domains [1]: 42200
- CXCR1 activation, luminescence at 100 nM IL-8 domains [1]: 54000
- CXCR1 activation, luminescence at 0.4 nM IL-8 domains [2]: 6530
- CXCR1 activation, luminescence at 1.6 nM IL-8 domains [2]: 12200
- CXCR1 activation, luminescence at 6.25 nM IL-8 domains [2]: 28600
- CXCR1 activation, luminescence at 25 nM IL-8 domains [2]: 50500
- CXCR1 activation, luminescence at 100 nM IL-8 domains [2]: 70200

Substance: BLV1H12-IL8 (antibody)
- CXCR1 activation, luminescence, 0.1 nM IL-8 domains [1]: 4520 luminescence
- CXCR1 activation, luminescence, 0.5 nM IL-8 domains [1]: 9940 luminescence
- CXCR1 activation, luminescence, 2.2 nM IL-8 domains [1]: 17600 luminescence
- CXCR1 activation, luminescence, 9.9 nM IL-8 domains [1]: 25300 luminescence
- CXCR1 activation, luminescence, 44 nM IL-8 domains [1]: 32600 luminescence
- CXCR1 activation, luminescence, 200 nM IL-8 domains [1]: 32200 luminescence

Substance: BLV1H12+CDR3-IL8 IgG (antibody)
- CXCR1 activation, average RLU at 0.001 nM IgG [1]: 7440 RLU
- CXCR1 activation, average RLU at 0.004 nM IgG [1]: 7240 RLU
- CXCR1 activation, average RLU at 0.01 nM [1]: 435 RLU
- CXCR1 activation, average RLU at 0.013 nM IgG [1]: 7330 RLU
- CXCR1 activation, average RLU at 0.040 nM IgG [1]: 7740 RLU
- CXCR1 activation, average RLU at 0.08 nM [1]: 822 RLU
- CXCR1 activation, average RLU at 0.120 nM IgG [1]: 8870 RLU
- CXCR1 activation, average RLU at 0.23 nM [1]: 1520 RLU
- CXCR1 activation, average RLU at 0.359 nM IgG [1]: 13300 RLU
- CXCR1 activation, average RLU at 0.69 nM [1]: 2650 RLU
- CXCR1 activation, average RLU at 1.076 nM IgG [1]: 23700 RLU
- CXCR1 activation, average RLU at 2.06 nM [1]: 3640 RLU
- CXCR1 activation, average RLU at 3.228 nM IgG [1]: 34500 RLU
- CXCR1 activation, average RLU at 6.17 nM [1]: 4430 RLU
- CXCR1 activation, average RLU at 9.685 nM IgG [1]: 39300 RLU
- CXCR1 activation, average RLU at 18.52 nM [1]: 5070 RLU
- CXCR1 activation, average RLU at 29.056 nM IgG [1]: 47600 RLU
- CXCR1 activation, average RLU at 55.56 nM [1]: 5510 RLU
- CXCR1 activation, average RLU at 87.167 nM IgG [1]: 52100 RLU
- CXCR1 activation, average RLU at 166.67 nM [1]: 6210 RLU
- CXCR1 activation, average RLU at 261.500 nM IgG [1]: 56300 RLU
- CXCR1 activation, average RLU at 500.00 nM [1]: 6640 RLU
- Median Arbitrary Fluorescence Units (AFU) [3]: 707 AFU

Substance: IgG VH4-4 CDR3 BsaI (lacking the IL-8 insert) (antibody)
- CXCR1 activation, average RLU at 0.001 nM IgG [1]: 7500 RLU
- CXCR1 activation, average RLU at 0.004 nM IgG [1]: 7390 RLU
- CXCR1 activation, average RLU at 0.013 nM IgG [1]: 7050 RLU
- CXCR1 activation, average RLU at 0.040 nM IgG [1]: 6970 RLU
- CXCR1 activation, average RLU at 0.120 nM IgG [1]: 7330 RLU
- CXCR1 activation, average RLU at 0.359 nM IgG [1]: 6690 RLU
- CXCR1 activation, average RLU at 1.076 nM IgG [1]: 7180 RLU
- CXCR1 activation, average RLU at 3.228 nM IgG [1]: 7030 RLU
- CXCR1 activation, average RLU at 9.685 nM IgG [1]: 7170 RLU
- CXCR1 activation, average RLU at 29.056 nM IgG [1]: 7100 RLU
- CXCR1 activation, average RLU at 87.167 nM IgG [1]: 7140 RLU
- CXCR1 activation, average RLU at 261.500 nM IgG [1]: 7540 RLU

Substance: soluble IL-8 (from UniProt P10145 28-99) (ligand)
- CXCR1 activation, luminescence, 0.1 nM IL-8 domains [1]: 4200 luminescence
- CXCR1 activation, luminescence, 0.5 nM IL-8 domains [1]: 9790 luminescence
- CXCR1 activation, luminescence, 2.2 nM IL-8 domains [1]: 25700 luminescence
- CXCR1 activation, luminescence, 9.9 nM IL-8 domains [1]: 50300 luminescence
- CXCR1 activation, luminescence, 44 nM IL-8 domains [1]: 54100 luminescence
- CXCR1 activation, luminescence, 200 nM IL-8 domains [1]: 50400 luminescence

Substance: Negative Control IgG (antibody)
- IL-2 ELISA (A450), Donor 1, 0.01 nM IgG [4]: 2 A450 and 2.15 A450
- IL-2 ELISA (A450), Donor 1, 0.75 nM IgG [4]: 2.11 A450 and 2.04 A450
- IL-2 ELISA (A450), Donor 1, 68 nM IgG [4]: 1.48 A450 and 1.55 A450
- IL-2 ELISA (A450), Donor 2, 0.01 nM IgG [4]: 1.61 A450 and 1.48 A450
- IL-2 ELISA (A450), Donor 2, 0.75 nM IgG [4]: 1.56 A450 and 1.52 A450
- IL-2 ELISA (A450), Donor 2, 68 nM IgG [4]: 1.5 A450 and 1.37 A450
- TNF-α ELISA (A450), Donor 1, 0.01 nM IgG [4]: 1.62 A450 and 1.66 A450
- TNF-α ELISA (A450), Donor 1, 0.75 nM IgG [4]: 1.69 A450 and 1.65 A450
- TNF-α ELISA (A450), Donor 1, 68 nM IgG [4]: 1.02 A450 and 1.13 A450
- TNF-α ELISA (A450), Donor 2, 0.01 nM IgG [4]: 2.07 A450 and 1.77 A450
- TNF-α ELISA (A450), Donor 2, 0.75 nM IgG [4]: 2.04 A450 and 1.85 A450
- TNF-α ELISA (A450), Donor 2, 68 nM IgG [4]: 1.88 A450 and 1.54 A450

Substance: BLV1H12+CDR3-IL8 / BLV1H12 light chain (SEQ ID NO: 412) IgG (antibody)
- FACS CXCR1/Parental Ratio [5]: 5
